Data taken from US20260217843A1.

Experiments:
[1] = target: Recombinant Human OX40L Protein, His Tag (Acro Cat. IL3-H52H4) (human) (UniProt P23510); test: SPR (Biacore 8K), antibody captured, human OX40L injected, 1:1 fit
[2] = target: hOX40L added as soluble protein in cell assays (human) (UniProt P23510); test: cell-based or functional assay
Chain of hOX40L added as soluble protein in cell assays (human) (P23510 51-183 limits assumed): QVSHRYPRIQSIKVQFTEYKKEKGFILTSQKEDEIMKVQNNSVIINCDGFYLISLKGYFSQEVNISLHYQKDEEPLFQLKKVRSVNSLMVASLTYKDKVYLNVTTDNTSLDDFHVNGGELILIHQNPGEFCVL

Chain of Recombinant Human OX40L Protein, His Tag (Acro Cat. IL3-H52H4) (human) (P23510 51-183 limits assumed): as above

B1: positive control based on the sequences of the anti-hOX40L antibody amlitelimab (antibody, IgG4, V domains shown)
VH: EVQLVESGGGLVQPGGSLRLSCAASGFTFSNYAMNWVRQAPGKGLEWVSTISGSGGATRYADSVKGRFTISRDNSRNTVYLQMNSLRVEDTAVFYCTKDRLIMATVRGPYYYGMDVWGQGTTVTVSS
VL: DIQMTQSPSSLSASVGDRVTITCRASQSISSYLNWYQQKPGKAPNLLIYAASSLQSGVPSRFSGSGSETDFTLTISSLQPEDFATYYCQQSHSVSFTFGPGTKVDIK
Kd [1]: 0.071 nM
koff [1]: 0.000112 s⁻¹
kon [1]: 1.58e+06 M⁻¹ s⁻¹
IC50, luminescence (RLU), hOX40 reporter cells with 50 ng/mL hOX40L [2]: 1.17 nM
Mean IFNγ concentration, MLR + OX40L (1000 ng/ml); donor pairing 1; antibody 4 nM [2]: 201 pg/mL
Mean IFNγ concentration, MLR + OX40L (1000 ng/ml); donor pairing 1; antibody 20 nM [2]: 41.4 pg/mL
Mean IFNγ concentration, MLR + OX40L (1000 ng/ml); donor pairing 1; antibody 100 nM [2]: 145 pg/mL
Mean IFNγ concentration, MLR + OX40L (1000 ng/ml); donor pairing 3; antibody 4 nM [2]: 1050 pg/mL
Mean IFNγ concentration, MLR + OX40L (1000 ng/ml); donor pairing 3; antibody 20 nM [2]: 520 pg/mL
Mean IFNγ concentration, MLR + OX40L (1000 ng/ml); donor pairing 3; antibody 100 nM [2]: 75.4 pg/mL
Mean IFNγ concentration, MLR + OX40L (1000 ng/ml); donor pairing 4; antibody 4 nM [2]: 1170 pg/mL
Mean IFNγ concentration, MLR + OX40L (1000 ng/ml); donor pairing 4; antibody 20 nM [2]: 424 pg/mL
Mean IFNγ concentration, MLR + OX40L (1000 ng/ml); donor pairing 4; antibody 100 nM [2]: 161 pg/mL
Mean IFNγ concentration, MLR + OX40L (1000 ng/ml); donor pairing 5; antibody 4 nM [2]: 1350 pg/mL
Mean IFNγ concentration, MLR + OX40L (1000 ng/ml); donor pairing 5; antibody 20 nM [2]: 780 pg/mL
Mean IFNγ concentration, MLR + OX40L (1000 ng/ml); donor pairing 5; antibody 100 nM [2]: 878 pg/mL
Mean IFNγ concentration, MLR + OX40L (1000 ng/ml); donor pairing 6; antibody 4 nM [2]: 780 pg/mL
Mean IFNγ concentration, MLR + OX40L (1000 ng/ml); donor pairing 6; antibody 20 nM [2]: 279 pg/mL
Mean IFNγ concentration, MLR + OX40L (1000 ng/ml); donor pairing 6; antibody 100 nM [2]: 202 pg/mL
Mean IFNγ concentration, MLR + OX40L (1000 ng/ml); donor pairing 8; antibody 4 nM [2]: 17.3 pg/mL
Mean IFNγ concentration, MLR + OX40L (1000 ng/ml); donor pairing 8; antibody 20 nM [2]: 10.8 pg/mL
Mean IFNγ concentration, MLR + OX40L (1000 ng/ml); donor pairing 8; antibody 100 nM [2]: 92.5 pg/mL
